Data on 2 molecules can be found in publication PMC11294625, “The kinesin-3 KIF1C undergoes liquid-liquid phase separation for accumulation of specific transcripts at the cell periphery”.

Data set [1] deals with T1, KIF1C(CC4+IDR)-mNG (Homo sapiens, UniProt O43896 785-1103).
T1 sequence: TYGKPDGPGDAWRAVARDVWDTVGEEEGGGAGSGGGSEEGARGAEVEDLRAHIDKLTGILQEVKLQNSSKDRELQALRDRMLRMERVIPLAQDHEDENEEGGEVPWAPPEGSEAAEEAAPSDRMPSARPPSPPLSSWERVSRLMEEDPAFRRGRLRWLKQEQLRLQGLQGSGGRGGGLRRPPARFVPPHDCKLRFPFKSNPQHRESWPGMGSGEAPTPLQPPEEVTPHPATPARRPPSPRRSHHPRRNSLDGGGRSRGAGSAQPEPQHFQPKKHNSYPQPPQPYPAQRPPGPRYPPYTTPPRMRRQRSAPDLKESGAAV
Kind of data set: in vitro condensate recruitment (fluorescence microscopy); 15-60 nM RNA, 100 nM protein, 100 mM NaCl; selectively enriched in condensates; 100 nM KIF1C(CC4+IDR)-mNG in 100 mM NaCl buffer, no crowding agent; pH and temperature of the assay not given in the material. Conditions: protein: recombinant; tags: C-terminal mNeonGreen; His-SUMO removed by TEV; chain copies: 2; label: 5'-Cy5; single strand.

In data set [2] the target is T1, KIF1C(CC4+IDR)-mNG. As to the kind of experiment: in vitro condensate recruitment (fluorescence microscopy); 120-600 nM RNA, 100 nM protein, 100 mM NaCl; enriched (condensates inhibited at uM RNA); 100 nM KIF1C(CC4+IDR)-mNG in 100 mM NaCl buffer, no crowding agent; pH and temperature of the assay not given in the material. Conditions: protein: recombinant; tags: C-terminal mNeonGreen; His-SUMO removed by TEV; chain copies: 2; label: 5'-Cy5; single strand.

B1: GU-rich RNA oligo, Cy5-(GU)6 (ssRNA)
RNA: GUGUGUGUGUGU
modifications: methylation at each nucleotide (printed mG/mU, probably 2'-O-methyl)
As for B1, the binding result in data set [1] is listed as “binds”.

B2: polyA RNA oligo, Cy5-A13 (ssRNA)
RNA: AAAAAAAAAAAAA
modifications: methylation at each nucleotide (printed mA, probably 2'-O-methyl)
Regarding B2, the binding result in data set [2] is “binds”.
